According to patent EP4324846A1 (Eberhard Karls Universität Tübingen, Medizinische Fakultät, dated 2024):

How the values were obtained:
[1] = biological target: T1, EGF (Peprotech AF-100-15) (UniProt P01133 971-1023); assay: SPR (Biacore X100), EGF immobilized on CM5, multi-cycle kinetics
T1 construct: Immobilized on a CM5 chip by amine coupling; Also added at 400 pM in the A431 proliferation assay; also called epidermal growth factor

[2] = biological target: T1, EGF (Peprotech AF-100-15); assay: SPR, EGF immobilized; reference d3-wt
[3] = biological target: T2, d3-wt (human EGFR domain 3) (human, UniProt P00533 337-504, limits assumed); assay: SPR (Biacore X100), HB-EGF immobilized on CM5, multi-cycle kinetics
T2 construct: Expressed in E. coli from pET-28a(+) and purified on a HisTrap column; Monomeric fraction used; also called wild type d3; wild-type d3 domain

T1 sequence (P01133 971-1023 limits assumed): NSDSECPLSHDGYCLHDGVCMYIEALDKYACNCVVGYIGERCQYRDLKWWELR

B1: dd3-1 (designed binder)
chain: ANGIGIGEFKDSLSIWAWNIKHFKNARSISGDLHILPVAFRGDSFTHTPPLEPKELEILKTVKEITGYLLVQAWPENRTDLHAFENLEIIRGRTKQHGQFSLAVVSLNVTSLGLRSLKEISDGDVIMSGNKNLKMANEMNWKKMFGTSGQKTKIISNRGE
notes: Expressed in E. coli from pET-28a(+) and purified on a HisTrap column; also called design
How did the Kd [1] turn out when B1 was run?
The Kd was 10 nM.

What about the “fold tighter binding than d3-wt” value [2] of the same binder?
The value was 5 fold.

B2: HB-EGF (R&D Systems 259-HE-050/CF) (ligand, UniProt Q99075 63-148, looked up)
chain: DLQEADLDLLRVTLSSKPQALATPNKEEHGKRKKKGKGLGKKRDPCLRKYKDFCIHGECKYVKELRAPSCICHPGYHGERCHGLSL
notes: Immobilized on a CM5 chip by amine coupling
For B2, which Kd [3] is on record?
Its Kd is 263 nM.
